Here are results for one molecule from patent US20060040319A1, “Multiple sensor-containing active modified polypeptides, preparation and uses thereof” (priority 2000, published 2006).

“Also recorded” adds a separate entry of the source.

Data set [1] deals with T1, full length recombinant c-Abl (Mus musculus, UniProt P00520).
T1 construct: full length recombinant (Baculovirus/SF9) mouse c-Abl; made in house; host or cells: Baculovirus/SF9
Briefly: Kinase assay: phosphorylation of Rh-(Crk-II)-Fl by full length c-Abl (FRET, western blot, native PAGE). Format: biochemical. As to the method:
(§1) Purified Rh-(Crk-II)-Fl prepared as described in Example I was treated with either full length recombinant (Baculovirus/SF9) mouse c-Abl or a GST fusion of mouse c-Abl containing only the SH2 and kinase domains (expressed in E. coli BL21 essentially as described (19)). In a typical experiment, the appropriate c-Abl construct was incubated in reaction buffer (2 mM DTT, 0.2 mg/ml BSA, 10 mM Mg^2+, 50 mM Tris, pH 7.4, either with or without ATP (500 μM)) for 5 min at 30° C. before addition of Rh-(Crk-II)-Fl (final concentration=0.25 μM). In order to ensure that equal amounts of active c-Abl enzyme were added to each reaction, preliminary titration experiments were carried out using an optimized peptide substrate for c-Abl (EAIYAAPFAKKK (SEQ ID No:2) (20)). For peptide inhibition studies, Rh-(Crk-II)-Fl was pre-incubated for 30 min with a high affinity ligand for the N-SH3 domain of Crk, PPPALPPKRRR-NH2 (SEQ ID No:7) (21), such that the final concentration of ligand in the kinase assay was 12 μM. In all cases, aliquots of the reaction mixtures were removed at ˜1 min and 60 min, quenched with EDTA (final conc.=40 mM), and then analyzed by native-PAGE and/or Western blotting and fluorescence spectroscopy.
Western Blotting. Standard procedures were used to probe for tyrosine phosphorylation using a mouse monoclonal anti-phosphotyrosine primary antibody (PY20, Santa Cruz Biotechnology) and a HPO-conjugated goat anti-mouse polyclonal secondary antibody (Amersham Pharmacia).
Fluorescence Spectroscopy. Experiments were conducted at 18° C. in a stirred 0.5 cm-pathlength cell using a SPEX FL3-11C fluorimeter. Samples from the reactions (50 μl) were diluted into 2 mM DTT, 0.4 mg/mL BSA, 140 mM NaCl, 50 mM Tris, pH 7.4 buffer (450 μl) for analysis. Excitation was at 490 nm with a 2.5 nm slit and the fluorescence emission was monitored at 520 nm and 580 nm through a 4 nm slit. Purified Rh-(Crk-II)-Fl was assayed for its ability to biosense Crk-II phosphorylation by the c-Abl protein tyrosine kinase. As indicated previously, phosphorylation by c-Abl leads to an intramolecular association between a phosphotyrosine motif and the Crk-II SH2 domain, which could potentially be reported by the dual-labeled Crk-II derivative (FIG. 1). Rh-(Crk-II)-Fl was treated with full length recombinant c-Abl and aliquots of the reaction mixture were analyzed by fluorescence spectroscopy and western blotting at ˜1 min and 60 min time-points. […] In contrast, when ATP was included in the reaction mixture, a phosphorylation-dependent increase in the emission intensity ratio (a decrease in FRET) was consistently observed.
On the technique in general: Immunoblotting shows a protein as a band on a membrane.

In data set [2] the target is T2, GST fusion of mouse c-Abl containing only the SH2 and kinase domains (Mus musculus, UniProt P00520).
T2 construct: a GST fusion of mouse c-Abl containing only the SH2 and kinase domains; made in house; host or cells: E. coli BL21
T2 sequence (P00520 127-493): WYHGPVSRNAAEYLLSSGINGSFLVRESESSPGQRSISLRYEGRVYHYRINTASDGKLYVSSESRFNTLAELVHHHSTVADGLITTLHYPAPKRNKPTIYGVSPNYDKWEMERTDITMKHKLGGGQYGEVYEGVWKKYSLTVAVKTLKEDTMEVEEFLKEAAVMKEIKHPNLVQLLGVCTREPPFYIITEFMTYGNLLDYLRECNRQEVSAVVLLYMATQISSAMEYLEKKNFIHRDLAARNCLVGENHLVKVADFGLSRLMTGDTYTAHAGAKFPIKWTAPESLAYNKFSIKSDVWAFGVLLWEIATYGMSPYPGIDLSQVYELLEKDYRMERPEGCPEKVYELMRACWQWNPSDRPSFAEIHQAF
Briefly: Kinase assay with truncated c-Abl containing only the SH2 and kinase domains. The data set is classed as biochemical. Particulars: truncated c-Abl (SH2 and kinase domains only), over 60 min. The procedure:
as §1, with “For peptide inhibition studies, Rh-(Crk-II)-Fl was pre-incubated for 30 min with a high affinity ligand for the N-SH3 domain of Crk, PPPALPPKRRR-NH2 (SEQ ID No:7) (21), such that the final concentration of ligand in the kinase assay was 12 μM.” left out, “spectroscopy. […]” for “spectroscopy.”
Fluorescence Spectroscopy. […] Excitation was at 490 nm with a 2.5 nm slit and the fluorescence emission was monitored at 520 nm and 580 nm through a 4 nm slit. […] Rh-(Crk-II)-Fl was treated with full length recombinant c-Abl and aliquots of the reaction mixture were analyzed by fluorescence spectroscopy and western blotting at ˜1 min and 60 min time-points. […]

T1 sequence (P00520 whole entry): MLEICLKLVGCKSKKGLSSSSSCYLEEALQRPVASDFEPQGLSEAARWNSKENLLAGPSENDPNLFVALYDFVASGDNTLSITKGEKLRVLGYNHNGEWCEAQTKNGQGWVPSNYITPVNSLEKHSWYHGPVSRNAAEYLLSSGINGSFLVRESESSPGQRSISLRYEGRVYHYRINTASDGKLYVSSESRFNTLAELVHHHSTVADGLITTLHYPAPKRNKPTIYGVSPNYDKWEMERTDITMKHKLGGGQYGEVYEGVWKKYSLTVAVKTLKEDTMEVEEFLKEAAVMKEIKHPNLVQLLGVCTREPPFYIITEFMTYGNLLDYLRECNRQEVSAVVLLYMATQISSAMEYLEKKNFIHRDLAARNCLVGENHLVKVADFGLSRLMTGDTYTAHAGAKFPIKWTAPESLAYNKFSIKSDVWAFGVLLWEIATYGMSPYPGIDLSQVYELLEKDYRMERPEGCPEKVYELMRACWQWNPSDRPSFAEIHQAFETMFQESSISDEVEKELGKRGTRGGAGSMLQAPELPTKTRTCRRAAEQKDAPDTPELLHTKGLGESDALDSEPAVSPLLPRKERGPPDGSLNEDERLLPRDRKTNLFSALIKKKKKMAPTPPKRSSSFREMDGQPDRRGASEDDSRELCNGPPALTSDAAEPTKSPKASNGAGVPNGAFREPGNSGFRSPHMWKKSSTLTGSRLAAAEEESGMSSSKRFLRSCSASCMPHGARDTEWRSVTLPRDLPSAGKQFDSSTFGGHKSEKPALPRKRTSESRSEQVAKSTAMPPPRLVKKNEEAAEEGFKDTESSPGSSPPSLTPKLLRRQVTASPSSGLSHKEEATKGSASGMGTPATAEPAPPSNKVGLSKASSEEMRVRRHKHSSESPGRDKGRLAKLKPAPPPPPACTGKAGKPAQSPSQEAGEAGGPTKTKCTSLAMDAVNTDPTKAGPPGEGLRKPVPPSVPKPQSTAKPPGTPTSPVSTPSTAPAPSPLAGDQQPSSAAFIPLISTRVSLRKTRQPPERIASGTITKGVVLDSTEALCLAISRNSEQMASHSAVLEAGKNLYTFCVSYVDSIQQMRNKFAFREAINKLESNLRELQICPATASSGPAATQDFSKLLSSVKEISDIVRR

B1: Rh-(Crk-II)-Fl: semi-synthetic mouse Crk-II adapter protein with tetramethylrhodamine and fluorescein FRET pair at the N- and C-termini (protein)
chain: KRGCAGNFDSEERSSWYWGRLSRQEAVALLQGQRHGVFLVRDSSTSPGDYVLSVSENSRVSHYIINSSGPRPPVPPSPAQPPPGVSPSRLRIGDQEFDSLPALLEFYKIHYLDTTTLIEPVARSRQGSGVILRQEEAEYVRALFDFNGNDEEDLPFKKGDILRIRDKPEEQWWNAEDSEGKRGMIPVPYVEKYRPASASVSALIGGNQEGSHPQPLGGPEPGPYAQPSVNTPLPNLQNGPIYARVIQKRVPNAYDKTALALEVGELVKVTKINVSGQWEGECNGKRGHFPFTHVRLLDQQNPDEDFSGCGXGLEVLFQ
modifications: not fully specified; tetramethylrhodamine N-terminal, fluorescein C-terminal; Protein Kinase Target
notes: semi-synthetic mouse Crk-II adapter protein with tetramethylrhodamine and fluorescein FRET pair at the N- and C-termini
Regarding B1, in data set [1] (absence of ATP), the “change in FRET” value is listed as “essentially no change in FRET” and the “phosphorylation detected with anti-phosphotyrosine monoclonal antibody (western)” value is “no Rh-(Crk-II)-Fl phosphorylation could be detected”. Moreover, in data set [1] (with ATP, after 1 h), the “extent of phosphorylation by native PAGE mobility” value is “completely phosphorylated”. Also, the “decrease in FRET (increase in Fl:Rh emission intensity ratio)” value in data set [1] (with ATP, after 60 min) was about 3%. Moreover, the “phosphorylation by fluorescence and western blotting analysis” value in data set [2] is “did not lead to any detectable phosphorylation; also recorded: complete lack of phosphorylation”.
